Experimental data from PMC11162469, “Discovery of RXFP2 genetic association in resistant hypertensive men and RXFP2 antagonists for the treatment of resistant hypertension” (Scientific Reports, 2024).
Numbering of substitutions follows the chain as printed. Values belong to the molecule of their own block, whether it stands above or below them.

How the values were obtained:
rat RXFP2 [1] = target: T1, rat RXFP2 (Rattus norvegicus, UniProt F7EMH8); assay: INSL3-stimulated CYP11B2 mRNA expression in H295R stably expressing rat RXFP2; type: cell-based; set-up: expressed in transfected cells; settings: INSL3 EC80 (3.5 nM), 48 h, qPCR; N = 2
T1 sequence (F7EMH8 20-737): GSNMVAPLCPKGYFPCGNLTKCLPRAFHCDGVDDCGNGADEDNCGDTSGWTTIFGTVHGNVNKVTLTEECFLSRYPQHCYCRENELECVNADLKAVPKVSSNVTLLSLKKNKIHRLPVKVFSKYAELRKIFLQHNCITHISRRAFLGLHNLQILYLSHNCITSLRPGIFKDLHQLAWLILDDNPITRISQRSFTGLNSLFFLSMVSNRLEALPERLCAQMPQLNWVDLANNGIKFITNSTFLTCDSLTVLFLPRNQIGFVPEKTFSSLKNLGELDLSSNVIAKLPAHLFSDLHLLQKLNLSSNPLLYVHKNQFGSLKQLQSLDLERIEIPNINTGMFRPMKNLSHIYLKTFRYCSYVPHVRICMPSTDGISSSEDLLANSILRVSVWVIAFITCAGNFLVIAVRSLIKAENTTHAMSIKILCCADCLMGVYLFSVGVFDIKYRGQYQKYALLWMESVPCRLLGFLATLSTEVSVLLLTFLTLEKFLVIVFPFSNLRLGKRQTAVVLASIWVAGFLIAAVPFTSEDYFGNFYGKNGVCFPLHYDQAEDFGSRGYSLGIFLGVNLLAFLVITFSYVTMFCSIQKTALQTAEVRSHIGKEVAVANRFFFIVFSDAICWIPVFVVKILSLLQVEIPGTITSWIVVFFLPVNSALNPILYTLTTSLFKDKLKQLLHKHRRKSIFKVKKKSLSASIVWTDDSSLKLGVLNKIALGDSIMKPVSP
Procedure: (§1) RXFP2 antagonists were added to H295R-rRXFP2 before addition of INSL3 EC80 (3.5 nM) for 48 h, whereupon the cells and supernatants were collected. CYP11B1 and CYP11B2 mRNA were determined by qPCR and the RXFP2 blocker potencies were calculated (Fig. 5a). Fifteen antibodies have IC50s < 50 nM, and three of the top antibodies (1F2, 4G6, and 2D4) were selected for evaluation in steroid hormone secretion assays by ELISA.
(§2) Data entered as XY table, with x = [Inhibitor] (nM) and y = CYP11B2 or CYP11B1 fold change.

rat RXFP2 [2] = target: T1, rat RXFP2; assay: INSL3-stimulated cAMP assay in HEK293 stably expressing rat RXFP2; settings: INSL3 EC80-stimulated cAMP, stable expression, N = 2; for IC50: read-out: HEK293-rat RXFP2 cAMP IC50;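 on all read-outs here: cAMP measured with an HitHunter kit in 384-well plates, 11-point dose–response curves up to 1 µM antibody, four-parameter variable-slope fit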
[3] = Pharmacokinetic study of RXFP2 mAbs in rat; type: in vivo, Wistar Han rats; settings: for half-life, extrapolated values: Wistar Han rats, 1 mg/kg sc., over 28 days; for AUClast / Cmax / Tmax: male Wistar Han rats, 1 mg/kg s.c., n = 3, mean ± SD
Procedure: For the pharmacokinetic study of RXFP2 mAbs in rat, 1G1, 2D4, 4B1, 4G6, 1F2, and 3F3 were prepared in phosphate buffered saline (0.100 mg/mL) with low endotoxin (≤ 0.76 EU/mL). Adult male Wistar Han rats (n = 3/mAb) were administered 1 mg/kg subcutaneously (10 mL/kg). Blood samples (100 µL) were collected in EDTA containing tubes at 0.25, 3, 6 24, 48, 96, 168 (day 7), 336 (day 14), 504 (day 21), and 672 (day 28) hours post dose, immediately centrifuged (6100 rpm), and 50 µL plasma stored at − 80 °C until assay. Rats maintained health throughout the study and were anesthetized (isoflurane to effect) and euthanized on day 28.
Frozen rat plasma samples were thawed and analyzed using a qualified analytical method based on sample dilution, followed by Electrochemiluminescence immunoassay analysis. The lower limit of quantification (LLQ) was 0.1 µg/mL using a 10 µL aliquot of 51-fold diluted rat plasma with a higher limit of quantification (HLQ) of 10 µg/mL. RXFP2 mAbs were captured with LDLa protein and detected with sulfo-tag labeled mouse anti-rat IgG2b. The computer systems that were used to acquire and quantify data included Gyrolab Workstation Version 8.1.5 and Watson LIMS version 7.6.1. Rat pharmacokinetic parameters were calculated by non-compartmental analysis (NCA) analysis using WinNonlin Phoenix 64 (version 8.3). Values are reported in mean ± standard deviation.

rat RXFP2 [4] = target: T1, rat RXFP2; assay: INSL3-stimulated CYP11B1 mRNA expression in H295R stably expressing rat RXFP2; type: cell-based; set-up: expressed in transfected cells; settings: INSL3 EC80 (3.5 nM), 48 h, qPCR; N = 2
Procedure: as §1, §2

human RXFP2 = human RXFP2 (Homo sapiens, UniProt Q8WXD0); assay: INSL3-stimulated cAMP assay in HEK293 stably expressing human RXFP2; settings: read-out: HEK293-human RXFP2 cAMP IC50; INSL3 EC80-stimulated cAMP, stable expression; N = 2
Sequence of human RXFP2 (Q8WXD0 whole entry): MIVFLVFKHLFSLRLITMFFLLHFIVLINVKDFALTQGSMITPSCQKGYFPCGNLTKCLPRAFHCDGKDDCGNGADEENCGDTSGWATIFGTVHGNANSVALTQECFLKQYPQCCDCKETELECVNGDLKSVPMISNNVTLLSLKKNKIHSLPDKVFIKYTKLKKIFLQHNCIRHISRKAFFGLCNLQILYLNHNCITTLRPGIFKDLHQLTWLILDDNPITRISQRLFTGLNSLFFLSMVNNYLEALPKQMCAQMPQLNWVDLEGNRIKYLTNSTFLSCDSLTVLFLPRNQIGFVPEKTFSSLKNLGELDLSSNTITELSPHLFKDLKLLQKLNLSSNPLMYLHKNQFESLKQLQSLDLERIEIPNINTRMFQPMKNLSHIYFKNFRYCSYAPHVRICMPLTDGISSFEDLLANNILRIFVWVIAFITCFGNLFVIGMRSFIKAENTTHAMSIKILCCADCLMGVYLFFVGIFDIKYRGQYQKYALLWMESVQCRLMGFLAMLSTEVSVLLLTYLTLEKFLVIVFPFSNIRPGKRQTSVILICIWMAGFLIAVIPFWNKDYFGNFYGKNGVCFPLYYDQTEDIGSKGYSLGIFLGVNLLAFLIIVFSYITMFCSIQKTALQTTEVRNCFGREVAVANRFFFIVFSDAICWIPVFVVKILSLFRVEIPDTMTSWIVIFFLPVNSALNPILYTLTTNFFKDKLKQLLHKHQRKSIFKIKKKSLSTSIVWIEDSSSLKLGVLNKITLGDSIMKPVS

B1: 1G1: RXFP2 monoclonal antibody from hybridoma, recombinantly expressed in a rat IgG2b backbone (antibody, V domains shown)
VH: EVQLQQSGPELVKPGASVKMSCKASGYTFTDYNMHWVKQKPGQGLEWIGYINPYNDGTEYNEKFKGKATLTSDKSSSTAYMDLSSLTSEDSAVYYCARGLWFAMNYWGQGTSVTVSS
VL: DIQMTQSSSSFSVSLGDRVTITCKASEDIYNRLAWYQQKPGNTPRLLISGATILETGVPSRFSGSGSGKDYTLSIISLQTEDVATYYCQQYWIIPPTFGGGTKLEIK
IC50 (rat RXFP2 [1]): 0.17 nM
HEK293-rat RXFP2 cAMP % Max Response (rat RXFP2 [2]): 87.2%
IC50 (rat RXFP2 [2]): 28 nM
half-life, extrapolated values [3]: ≥ 264 h
estimated dose to achieve tenfold higher IC50 HEK-rRXFP2 cAMP activity for approximately 28 days in rat ([3]; from trough concentration, dose-linearity assumed): approximately 10 mg/kg
AUClast [3]: 4490 ± 467 µg·h/mL
Cmax [3]: 9820 ± 766 ng/mL
Tmax [3]: 120 ± 42 h
IC50 (rat RXFP2 [4]): 0.27 nM

B2: 3F3: RXFP2 monoclonal antibody from hybridoma, recombinantly expressed in a rat IgG2b backbone (antibody, V domains shown)
VH: QVQLQQPGSVLVRPGASVKLSCKASGYIFTSYWMHWVKQRPGQGLEWIGEIYPNSGRTSYNEKFKGKATVTVDTSSSTAYVDLSSLTSEDSAVYYCASGGHWFAYWGQGTLVTVSA
VL: B1 VL with T43A, I53S, T56A, I76T, A84S, I94T, P96Y
IC50 (rat RXFP2 [1]): 0.51 nM
HEK293-rat RXFP2 cAMP % Max Response (rat RXFP2 [2]): 78.5%
IC50 (rat RXFP2 [2]): 37 nM
half-life, extrapolated values [3]: ≥ 264 h
AUClast [3]: 987 ± 200 µg·h/mL
Cmax [3]: 2350 ± 858 ng/mL
Tmax [3]: 168 ± 0 h
IC50 (rat RXFP2 [4]): 3.85 nM

B3: 4H1: RXFP2 monoclonal antibody from hybridoma, recombinantly expressed in a rat IgG2b backbone (antibody, V domains shown)
VH: QIQLVQSGPELKKPGETVKISCKTSGYTFTKYPMHWVKQAPGEGLKWMGWINTYSGLPTFADDFKGRFAFSLETSANTADLQINNLKNEDMATYFCAREGKKLSGYFDYWGQGTTLTVSS
VL: DIKMTQSPSSMYASLGERVTITCKASQDINSYLTWFQQKPGQSPKTLIYRANRFVDGVPSRFSGSGSGQDYSLTITSLEYEDMGIYYCLQYDEFPYTFGGGTQLEIK
HEK293-rat RXFP2 cAMP % Max Response (rat RXFP2 [2]): 69.7%
IC50 (rat RXFP2 [2]): 150 nM
IC50 (human RXFP2): ~218 nM

B5: 4A5: RXFP2 monoclonal antibody from hybridoma, recombinantly expressed in a rat IgG2b backbone (antibody, V domains shown)
VH: DVQLVESGGGLVQPGGSRKLSCAASGFTFSTFGMHWVRQAPEKGLEWVAYISSGSSTIYYADTVKGRFTISRDNPKNTLFLQMTSLRSDDTAMYYCSRSYYGSAHYFDYWGQGTTLTVSS
VL: DIQMTQSPASLSVSVGETVTITCRASENIYSNLAWYQQKQGKSPQLLVYVATNLADGVPSRFSGSGSGTQYSLRINNLQSEDFGNYYCQHFWGTPPTFGGGTKLEIK
IC50 (rat RXFP2 [1]): 0.31 nM
HEK293-rat RXFP2 cAMP % Max Response (rat RXFP2 [2]): 91.0%
IC50 (rat RXFP2 [2]): 23.2 nM
IC50 (rat RXFP2 [4]): 2.85 nM

B6: 4B8: RXFP2 monoclonal antibody from hybridoma, recombinantly expressed in a rat IgG2b backbone (antibody, V domains shown)
VH: QVQLKQSGPGLVQPSQSLSITCTVSGFSLSRYGVHWVRQSPGKGLEWLGVIWSGGSTEYNAVFKSRLSISKDNSKSQVFFKMNSLQANDTAIYYCVRADGYYAMEYWGQGTSVTVSS
VL: B5 VL with V50A, A51V, R74K, N77S, P96Y
IC50 (rat RXFP2 [1]): 0.17 nM
HEK293-rat RXFP2 cAMP % Max Response (rat RXFP2 [2]): 86.6%
IC50 (rat RXFP2 [2]): 21.4 nM
IC50 (rat RXFP2 [4]): 0.23 nM
IC50 (human RXFP2): ~116 nM

These reach a lower IC50 (rat RXFP2 [2]). Values come first.

IC50 (rat RXFP2 [1]): 0.23 nM
HEK293-rat RXFP2 cAMP % Max Response (rat RXFP2 [2]): 69.7%
IC50 (rat RXFP2 [2]): 19.9 nM
IC50 (rat RXFP2 [4]): 0.27 nM
IC50 (human RXFP2): ~589 nM
B4: 3F1: RXFP2 monoclonal antibody from hybridoma, recombinantly expressed in a rat IgG2b backbone (antibody, V domains shown)
VH: QVQLKESGPGLVAPSQSLSITCTVSGFSLTDYGVSWIRQPPGKGLEWLGVIWGGGSTDYNPALKSRLSISKDNSKSQVFLKMNSLQADDTAMYYCVKHEGYYAMDYWGQGTSVTVSS
VL: B5 VL with Q45H, V50A, A51V, R74K, N77S, N85S, P96Y

IC50 (rat RXFP2 [1]): 0.13 nM
HEK293-rat RXFP2 cAMP % Max Response (rat RXFP2 [2]): 85.7%
IC50 (rat RXFP2 [2]): 18.9 nM
IC50 (rat RXFP2 [4]): 0.26 nM
B10: 4H2: RXFP2 monoclonal antibody from hybridoma, recombinantly expressed in a rat IgG2b backbone (antibody, V domains shown)
VH: QVQLRQSGPSLVQPSQSLSITCTVSGFSLTNYGVHWVRQSPGKGLEWLGVIWRGGNTDHNAAFMSRLSITKDNSESQVFFKMNSLQVDDTAIYYCAKAEGYYALDYWGQGTSVTVYS
VL: B5 VL with V50A, A51V, R74K, N77S, N85S, P96W

IC50 (rat RXFP2 [1]): 0.2 nM
HEK293-rat RXFP2 cAMP % Max Response (rat RXFP2 [2]): 83.3%
IC50 (rat RXFP2 [2]): 16.1 nM
IC50 (rat RXFP2 [4]): 0.33 nM
B9: 3G4: RXFP2 monoclonal antibody from hybridoma, recombinantly expressed in a rat IgG2b backbone (antibody, V domains shown)
VH: QVQLKESGPGLVAPSQSLSITCTVSGFSLTSYGVSWVRQPPGKGLEWLGVIWGDGSTNYHSALISRLSISKDNSKSQVFLKLNSLQTDDTATYYCAKSLGYYAMDYWGQGTSVTVSS
VL: B5 VL with A34V, V50A, D56E, R74K, N77S, N85S, T94P, P96W

IC50 (rat RXFP2 [1]): 0.16 nM
HEK293-rat RXFP2 cAMP % Max Response (rat RXFP2 [2]): 71.6%
IC50 (rat RXFP2 [2]): 15.8 nM
IC50 (rat RXFP2 [4]): 0.33 nM
B8: 3H1: RXFP2 monoclonal antibody from hybridoma, recombinantly expressed in a rat IgG2b backbone (antibody, V domains shown)
VH: QVQLKETGPGLVAPSQSLSITCTVSGFSLTNYGVNWVRQPPGKGLEWLVVIWSDGSTNYNSALKSRLSISKDNSKSQVFLKMNSLQTDDTAMYYCARQQGYYAMDYWGQGTSVIVSS
VL: B5 VL with V50A, A51V, R74K, N77S, N85S, T94P, P96Y

IC50 (rat RXFP2 [1]): 0.15 nM
HEK293-rat RXFP2 cAMP % Max Response (rat RXFP2 [2]): 89.2%
IC50 (rat RXFP2 [2]): 14.2 nM
IC50 (rat RXFP2 [4]): 0.21 nM
B7: 4H5: RXFP2 monoclonal antibody from hybridoma, recombinantly expressed in a rat IgG2b backbone (antibody, V domains shown)
VH: QVQLKQSGPGLVQPSQSLSITCTVSGFSLTNYGVHWVRQSPGKGLEWLGVIWRDGNTDYNAAFMSRLSITKDNSKSQVFFEMNSLQVDDTAIYYCCRGDGYYAMGYWGQGTSVTVSS
VL: B5 VL with K39R, K42R, V50A, R74K, N77S, T94S, P96R
